Here are results for two molecules from paper PMC5655547, “A General Strategy for Discovery of Inhibitors and Activators of RING and U-box E3 Ligases with Ubiquitin Variants” (Molecular Cell, 2017).

In general, Kd refers to the constant that tells how readily two partners part at equilibrium. A low value points to a tighter complex. For orientation: stoichiometry N means the number of molecules, sites or subunits per partner or assembly.

The target in data set [1] is T1, UbcH5B S22R C85K-Ub (stable conjugate) (UniProt P62837 1-147; P0CG48 1-76, S22R | C85K, stably conjugated to Ub (C85K-Ub)).
T1 construct: UbcH5B with S22R and C85K; ubiquitin; mimic of UbcH5B~Ub; also called UbcH5B C85K S22R–Ub; source: made from purified Arabidopsis Uba1, UbcH5B C85K S22R and His-GST-Ub; purified (Ni2+ agarose, TEV cleavage, Source 15S, Superdex 75)
In words: SPR; Biacore T200, CM-5 chip, 25°C; GST-tagged E3 captured on anti-GST (1,000-2,000 RU); analyte in 25 mM Tris-HCl pH 7.6, 150 mM NaCl, 0.1 mg/ml BSA, 1 mM DTT, 0.005% Tween-20; steady-state affinity; GST alone subtracted. To be noted: both partners purified. (SPR reads the build-up and loss of mass on a sensor chip optically.)

Data set [2] concerns the molecule itself. In words: crystal structure; XR and UbV.XR mixed 1:1.2; sitting drop, 0.1 M NaHEPES pH 7.5, 1.4 M tri-Na citrate; 1.57 Å.

B1: GST-tagged RING domain of XIAP (XR, residues 434-C) (domain or fragment, UniProt P98170 434-497, looked up)
chain: EISTEEQLRRLQEEKLCKICMDRNIAIVFVPCGHLVTCKQCAEAVDKCPMCYTVITFKQKIFMS
notes: XIAP RING domain, residues 434 to the C terminus; also called GST-XR; HisGST-XR; source: E. coli BL21(λDE3) GOLD, purified (glutathione agarose); not shown: His tag, N-terminal, kept
In the case of B1, binding in data set [1] was characterised by a dissociation constant (Kd) of 12.2 µM. This counts as double-digit micromolar.

B2: RING domain of XIAP (XR, residues 434-C), tag removed (domain or fragment, UniProt P98170 434-497, looked up)
chain: B1 chain
notes: XIAP RING domain, residues 434 to the C terminus; dimeric RING in the crystal; not shown: His-GST, N-terminal, cleaved
Consider B2, for which the “stoichiometry N” value in data set [2] amounted to 2.
